# Measurements reported in US20200377593A1 (Innovent, published 2020).
# Substitutions are numbered along the chain they refer to.
# T1: mouse CD47-Fc (mouse, UniProt Q61735 19-140, limits assumed)
# T1 construct: not shown: Fc part; not described
# T1 sequence (looked up): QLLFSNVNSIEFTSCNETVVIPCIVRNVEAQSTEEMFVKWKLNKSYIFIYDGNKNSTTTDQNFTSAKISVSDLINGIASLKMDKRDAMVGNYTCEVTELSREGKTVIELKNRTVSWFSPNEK
# B1: ADI-26655 (antibody, human IgG1, kappa, V domains shown)
# VH: QVQLQESGPGLVKPSETLSLTCTVSGGSISSYYWSWIRQPPGKGLEWIGYIYYSGSTTYNPSLKSRVTISVDTSKNQFSLKLSSVTAADTAVYYCARKKRFFDLWGQGTTVTVSS
# VL: not shown
# notes: Full-length IgG1 kappa expressed in yeast, purified by Protein A
# B2: ADI-26660 (antibody, human IgG1, kappa, V domains shown)
# VH: B1 VH with Y50S, T58N, K99Q, R100K, F101H, L104I, T110M
# VL: DIQMTQSPSSVSASVGDRVTITCRASQGISSWLAWYQQKPGKAPKLLIYAASSLQSGVPSRFSGSGSGTDFTLTISSLQPEDFATYYCQQVNHHPWTFGGGTKVEIKR
# notes: as for B1
# B3: ADI-29342 (antibody, human IgG1, kappa, V domains shown)
# VH: B1 VH with S30M, S31H, T58N, K98G, R100T, F101G, F102S, D103A, L104A, T110L
# VL: B2 VL with S31R, V91T, N92V, H93S, H94F, W96I
# notes: as for B1
# B4: ADI-29347 (antibody, human IgG1, kappa, V domains shown)
# VH: QVQLQESGPGLVKPSETLSLTCTVSGGSIANYYWSWIRQPPGKGLEWIGYTYFSGSTNYNPSLKSRVTISVDTSKNQFSLKLSSVTAADTAVYYCARGKTGSAAWGQGTLVTVSS
# VL: B2 VL with S31R, V91T, N92V, H93S, H94F, W96I
# notes: as for B1
# B5: ADI-29350 (antibody, human IgG1, kappa, V domains shown)
# VH: B1 VH with S30E, S31H, S56F, T58E
# VL: not shown
# notes: as for B1
# B6: ADI-29338 (antibody, human IgG1, kappa, V domains shown)
# VH: B1 VH with Y50T, T58R, K98G, R100S, F101A, L104P, T110L
# VL: DIQMTQSPSSVSASVGDRVTITCRASQGISRWLAWYQQKPGKAPKLLIYAASSLQSGVPSRFSGSGSGTDFTLTISSLQPEDFATYYCQQADLHPPLTFGGGTKVEIKR
# notes: as for B1
# B7: ADI-29345 (antibody, human IgG1, kappa, V domains shown)
# VH: B4 VH with A30S, N31H, T51I, F53Y, S56V, N58T, A103T
# VL: B2 VL with S31R, V91T, N92V, H93S, H94F, W96I
# notes: as for B1
# B8: ADI-29337 (antibody, human IgG1, kappa, V domains shown)
# VH: B1 VH with S30N, S31H, Y50A, T58R, K98G, R100S, F101A, L104P, T110L
# VL: B6 VL
# notes: as for B1
# B9: Hu5F9 (antibody, V domains shown)
# VH: QVQLVQSGAEVKKPGASVKVSCKASGYTFTNYNMHWVRQAPGQRLEWMGTIYPGNDDTSYNQKFKDRVTITADTSASTAYMELSSLRSEDTAVYYCARGGYRAMDYWGQGTLVTVSS
# VL: DIVMTQSPLSLPVTPGEPASISCRSSQSIVYSNGNTYLGWYLQKPGQSPQLLIYKVSNRFSGVPDRFSGSGSGTDFTLKISRVEAEDVGVYYCFQGSHVPYTFGQGTKLEIKR
# B10: ADI-29337 Fab fragment (Fab, V domains shown)
# VH: B1 VH with S30N, S31H, Y50A, T58R, K98G, R100S, F101A, L104P, T110L
# VL: B6 VL
# B11: ADI-26660 Fab fragment (Fab, V domains shown)
# VH: B1 VH with Y50S, T58N, K99Q, R100K, F101H, L104I, T110M
# VL: B2 VL
# notes: also called ADI-26660 (Fab form)
# B12: ADI-29342 Fab fragment (Fab, V domains shown)
# VH: B4 VH with A30M, N31H, T51I, F53Y
# VL: B2 VL with S31R, V91T, N92V, H93S, H94F, W96I
# B13: ADI-26655 Fab fragment (Fab, V domains shown)
# VH: B1 VH
# VL: not shown
# notes: also called ADI-26655 (Fab form)
# B14: ADI-29347 Fab fragment (Fab, V domains shown)
# VH: B4 VH
# VL: B2 VL with S31R, V91T, N92V, H93S, H94F, W96I
# notes: also called ADI-29347 (Fab form)
# B15: ADI-29350 Fab fragment (Fab, V domains shown)
# VH: B1 VH with S30E, S31H, S56F, T58E
# VL: not shown
# notes: also called ADI-29350 (Fab form)
# B16: ADI-29345 Fab fragment (Fab, V domains shown)
# VH: B4 VH with A30S, N31H, T51I, F53Y, S56V, N58T, A103T
# VL: B2 VL with S31R, V91T, N92V, H93S, H94F, W96I
# Target: T2, human CD47 overexpressed on CHO cells (human, UniProt Q08722 19-292)
# T2 construct: CHO cells transfected with pCHO1.0 carrying human CD47 cDNA (Sino Biological); also called hCD47; CHO-hCD47 cells
# Assay: flow cytometry competition on CHO-hCD47 cells against 200 nM mouse Fc-labeled SIRPα
row,IC50,Binder
1,38.1 nM,B1
2,16.7 nM,B2
3,2.69 nM,B3
4,2.16 nM,B4
5,10.5 nM,B5
6,3.14 nM,B6
7,2.75 nM,B7

# Target: T3, cynomolgus monkey CD47-Fc (cynomolgus monkey, UniProt A0A2K5X523 19-139)
# T3 construct: not shown: Fc part; not described
# Assay: BLI (ForteBio), antibody on AHQ tip, cynomolgus monkey CD47-Fc in solution 100 nM, bivalent
row,Kd,Binder
1,0.554 nM,B8
2,0.562 nM,B4

# Target: T1, mouse CD47-Fc
# Assay: BLI (ForteBio), antibody on AHQ tip, mouse CD47-Fc in solution 100 nM, bivalent
row,Kd,Binder
1,18.7 nM,B8
2,12.7 nM,B9

# Target: T4, human CD47-Fc (human, UniProt Q08722 19-139)
# T4 construct: also called hCD47; not shown: Fc part
# Assay: BLI (ForteBio), human CD47-Fc on AHQ tip, Fab in solution 100 nM, monovalent
row,Kd,Binder
1,2.2 nM,B10
2,130 nM,B11
3,11.7 nM,B12
4,46.3 nM,B13
5,11.3 nM,B14
6,5.04 nM,B15
7,2.89 nM,B16

# Target: T4, human CD47-Fc
# Assay: BLI (ForteBio), antibody on AHQ tip, human CD47-Fc in solution 100 nM, bivalent
row,Kd,Binder
1,0.849 nM,B1
2,1.35 nM,B2
3,0.404 nM,B8
4,0.486 nM,B3
5,0.71 nM,B4
6,0.451 nM,B5
7,0.403 nM,B7

# Target: T1, mouse CD47-Fc
# Assay: BLI (ForteBio), antibody on AHQ tip, mouse CD47-Fc in solution, bivalent
row,binding result,Binder
1,no binding (tested: 100 nM),B1
2,no binding (tested: 100 nM),B2
3,no binding (tested: 100 nM),B3
4,no binding (tested: 100 nM),B4
5,no binding (tested: 100 nM),B5
6,no binding (tested: 100 nM),B7

# Target: T2, human CD47 overexpressed on CHO cells
# Assay: flow cytometry on CHO-hCD47 cells, PE anti-human IgG, MFI curve
row,EC50,Binder
1,7.65 nM,B1
2,5.74 nM,B2
3,2.74 nM,B3
4,1.81 nM,B4
5,4.42 nM,B5
6,1.57 nM,B6
7,1.5 nM,B7
